Results on two molecules are retold here after patent US20150132307A1 (Hoffmann-La Roche, published 2015).

Assay [1] addresses T1, human Tweak-Fc (human, UniProt O43508 106-249, limits assumed).
T1 construct: not shown: Fc part
T1 sequence: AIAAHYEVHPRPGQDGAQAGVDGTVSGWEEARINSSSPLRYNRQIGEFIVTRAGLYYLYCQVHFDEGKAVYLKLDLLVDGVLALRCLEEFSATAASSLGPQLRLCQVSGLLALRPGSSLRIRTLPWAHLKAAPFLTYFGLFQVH
The assay is described as follows: SPR (BIAcore T100), TWEAK ligand (Tweak-Fc) amine-coupled on C1 chip, Fab as analyte, 25 C. On the technique in general: SPR reads the build-up and loss of mass on a sensor chip optically.

Assay [2] concerns the target T1, human Tweak-Fc. The assay is described as follows: SPR (BIAcore T100), TWEAK ligand (Tweak-Fc) amine-coupled on C1 chip, Fab as analyte, 25 C, 1:1 model.
The target in assay [3] is T1, human Tweak-Fc. The assay is described as follows: SPR (BIAcore T100), TWEAK ligand (Tweak-Fc) amine-coupled on C1 chip, Fab as analyte, 25 C, apparent KD, 1:1 model. As to the method: Around 100 resonance units (RU) of TWEAK was immobilized on the C1 chip surface at pH 5.0 using an amine coupling kit supplied by the GE Healthcare. The sample and system buffer was PBS-T (10 mM phosphate buffered saline including 0.05% Tween20) pH 7.4. Association was measured by injection the bispecific antibody in various concentrations in solution for 3 min at a flow of 30 μl/min starting with 50 nM in 1:1 dilutions. The dissociation phase was monitored for up to 10 min and triggered by switching from the sample solution to running buffer. The surface was regenerated by three times 30 sec. washing with a 3M MgCl2 solution at a flow rate of 30 μl/min. Bulk refractive index differences were corrected by subtracting the response obtained from a blank-coupled surface. Blank injections are also subtracted (=double referencing). For calculation of apparent KD and other kinetic parameters the Langmuir 1:1 model was used.

In assay [4] the target is T2, Human recombinant soluble TWEAK (Example 6) (human, UniProt O43508 99-249, limits assumed).
T2 sequence: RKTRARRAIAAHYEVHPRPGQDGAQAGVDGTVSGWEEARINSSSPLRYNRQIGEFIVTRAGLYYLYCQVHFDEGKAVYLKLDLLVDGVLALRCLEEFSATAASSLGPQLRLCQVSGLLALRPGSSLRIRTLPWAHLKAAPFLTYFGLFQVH
The assay is described as follows: cell-based or functional assay.

Assay [5] has as its target T3, Biotinylated human soluble TWEAK (amino acids 99-249 of SEQ ID NO: 68) (human, UniProt O43508 99-249, biotinylated).
T3 construct: also called Human TWEAK
T3 sequence: T2 sequence
Put plainly: SPR (Biacore 2000), biotinylated soluble TWEAK on streptavidin chip, antibody 100 nM as analyte, 25 C. The protocol: A Biacore 2000 instrument was used with a Biacore streptavidin coated sensor mounted into the system. The system buffer HBS-ET (10 mM HEPES pH 7.4, 150 mM NaCl, 1 mM EDTA, 0.05% Tween® 20) was used at a flow rate of 100 μl/min. The sample buffer was the system buffer. Biotinylated human soluble TWEAK (amino acids 99-249 of SEQ ID NO: 68) and biotinylated murine soluble TWEAK (amino acids 81-225 of SEQ ID NO: 69) was immobilized on different flow cells on the SA sensor at 150 RU each. The flow cell FC1 was used as a blank reference cell. Each antibody was injected into the system as an analyte at 100 nM at 100 μl/min for 2 min association time. The dissociation of the immunecomplexes were monitored for 5 min. The sensor surface was washed with HBS-ET for 10 seconds and regenerated using 2×2 minutes injections with 10 mM glycine pH 2.25. This procedure was done at 25° C. The kinetically rate limiting step of the complex dissociation phase in the interval [240 s-300 s] was taken to calculate the dissociation rate kd [1/s] (Biacore Evaluation Software 4.0). According to the equation t1/2 diss=ln(2)/(60×kd), the half-life of the immunocomplexes in minutes was calculated.

Assay [6] addresses T4, human Flag-tagged soluble TWEAK (amino acids 106-249) (human, UniProt O43508 106-249).
T4 construct: The sentence gives amino acids 106-249 without naming the entry; also called Human TWEAK; not shown: Flag tag
T4 sequence: T1 sequence
The assay is described as follows: receptor interaction ELISA: Flag-TWEAK 2.5 ng/ml preincubated with antibody, then on coated human Fn14:Fc (competitor m21). As to the method:
96-well Maxisorp® plates (Nunc) were coated with 100 μl 1 μg/ml human Fn14:Fc (extracellular domain of human Fn14 (amino acids 1-75 of SEQ ID NO: 98) fused to Fc portion of human IgG1) in PBS per well for 1.5 h at room temperature and blocked with a solution of 5% FBS in PBS for 30 minutes at room temperature under shaking. […] After washing the Fn14-coated plate once with wash buffer (0.1% Tween® 20 in PBS), 100 μl of the TWEAK-antibody solution were transferred to each well and the plate was incubated for 1 h at room temperature, followed by four washes with wash buffer. Wells were filled with 100 μl of anti-FLAG-HRP detection antibody, diluted 1:5000 in blocking buffer, and incubated for 1 h at room temperature. After four more wash steps, the signal was developed by addition of 100 μl 3,3,5,5-Tetramethylbenzidine (TMB) solution for approximately ten minutes. The reaction was stopped by adding 100 μl of 1 N HCl, and absorbance measured at 450 nm (reference wavelength 620 nm).
Background: In an ELISA, binding on a coated surface is turned into a signal by an enzyme label.

Assay [7] has as its target T5, Mouse soluble TWEAK (untagged, Example 5) (mouse, UniProt O54907 105-249, limits assumed).
T5 construct: also called Murine TWEAK
T5 sequence: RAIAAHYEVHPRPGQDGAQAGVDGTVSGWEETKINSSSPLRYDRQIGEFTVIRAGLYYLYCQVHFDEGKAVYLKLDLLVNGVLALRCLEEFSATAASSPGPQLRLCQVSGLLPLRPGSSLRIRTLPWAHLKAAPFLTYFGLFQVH
Put plainly: receptor interaction ELISA: mouse soluble TWEAK 4 ng/ml preincubated with antibody, then on coated mouse Fn14:Fc (competitor m22). As to the method: Briefly, Maxisorp plates were coated with mouse Fn14:Fc (extracellular domain of mouse Fn14 (amino acids 1-75 of SEQ ID NO: 98) fused to Fc portion of human IgG1) as described above for human Fn14:Fc, followed by blocking and washing. […] After 1 h of incubation at room temperature and four washes, biotinylated anti-mouse TWEAK antibody at 125 ng/ml in blocking buffer was added for 1 h at room temperature, followed by another four wash steps. The TWEAK antibody was detected by incubation with streptavidin-HRP, diluted 1:5000 in blocking buffer, for 30 minutes at room temperature. Signal was developed and absorbance measured as described above.

For assay [8], the target named is T6, Biotinylated TWEAK (Example 7) (Homo sapiens (Human), UniProt O43508 99-249, Biotinylated (sites not given), captured on a streptavidin chip. The active form is a soluble homotrimer; one protomer is given.).
T6 sequence: T2 sequence
Put plainly: Biacore crossblocking on immobilised biotinylated TWEAK; antibody 2 injected after saturating antibody 1 = TW-301chi (competitor m4), 100 nM each. As to the method: (§1) Because of the individual biochemical properties of the TWEAK protein another method had to be developed using TWEAK as ligand. Biotinylated TWEAK was immobilized on the streptavidin-coated chip surface and epitope coverage of consecutively injected antibodies (antibody 1) was measured. The aim was to detect the relative binding levels of a secondary antibody (antibody 2) in the presence of an already bound primary antibody. From these relative binding levels a quotient was calculated (Ab2/Ab1, molar ratio given in %, table 3).
(§2) 5 nM of biotinylated TWEAK was immobilized at 20 μl/min for 1 min on a streptavidin coated sensor flow cell. Primary and secondary mAbs were consecutively injected at 10 μl/min for 4 min into the system at 100 nM each until saturation of the respective TWEAK epitopes was achieved. As a reference an SA coated flow cell was used.

Assay [9] has as its target T6, Biotinylated TWEAK (Example 7). The assay is described as follows: Biacore crossblocking on immobilised biotinylated TWEAK; antibody 2 injected after saturating antibody 1 = TW-304chi (competitor m5), 100 nM each. The protocol:
as §1, §2

Assay [10] shares this target. Put plainly: Biacore crossblocking on immobilised biotinylated TWEAK; antibody 2 injected after saturating antibody 1 = TW-305chi (competitor m6), 100 nM each. The protocol: as §1, §2

B1: <TWEAK>305 (antibody 27) -Fab (Fab, V domains shown)
VH: QVQLVQSGAEVKKPGSSVKVSCKASGFDFSTYYMSWVRQAPGQGLEWMGTVYVRQGTTYYASWLNGRVTITADESTSTAYMELSSLRSEDTAVYYCARGGYNYDDAFVIWGQGTLVTVSS
VL: DIQMTQSPSSVSASVGDRVTITCQASQNIYSNLAWYQQKPGKAPKLLIYTASYLASGVPSRFSGSGSGTDYTLTISSLQPEDFATYYCQTAYYNSRPDTVAFGGGTKVEIK
One may read the koff as the first-order rate constant of dissociation. A higher koff goes with a short-lived complex. For orientation: kon means the rate constant with which the complex forms. Lower therefore signals slower complex formation. For B1, the “T½” value in [1] turned out to be 2.72 h. In addition, in assay [2], the koff was found to be 7.09e-05 s⁻¹ and the kon is 4.72e+06 M⁻¹ s⁻¹. For the same molecule, the Kd in assay [3] came out at 15 pM.

B2: <TWEAK> 301chi (antibody, human IgG1, kappa, V domains shown)
VH: QSLEESGGGLVKPGASLTLTCTASGFTFNANYWICWVRQAPGKGLEWIACIYGGGNSGAYYASWATGRFTISRTSSTTVTLQMTSLTAADTATYFCARGPISRDLWGPGTLVTVSL
VL: DVVMTQTPASVSEPVGGTVTIKCQASQSIYSSLAWYQQKPGQPPKLLIYDAFDLASGVSSRFTGSGSGTQFTLTISDLECADAATYYCQSTDYGNSWDGNPFGGGTEVVVTR
Broadly, the IC50 is the concentration that gives 50% inhibition. A low value points to higher potency. For B2, in assay [4], the “Inhibition of IL-8 Secretion IC50 [ng/ml] (A375 cells)” value is 121 ng/mL. The “t/2 diss [min] 25° C.” value in assay [5] came to 110 min. Moreover, the half-inhibitory concentration (IC50) stood at 2.8 ng/mL in assay [6] and 6.4 ng/mL in assay [7]. The “MR % (Ab2/Ab1, molar ratio)” value in assay [8], in assay [9] and in assay [10] was 0% in each case.
